T1: Cas-alpha 10 base variant (synthetic construct, UniProt P0DW62 SEQ:1-497)
T1 chain: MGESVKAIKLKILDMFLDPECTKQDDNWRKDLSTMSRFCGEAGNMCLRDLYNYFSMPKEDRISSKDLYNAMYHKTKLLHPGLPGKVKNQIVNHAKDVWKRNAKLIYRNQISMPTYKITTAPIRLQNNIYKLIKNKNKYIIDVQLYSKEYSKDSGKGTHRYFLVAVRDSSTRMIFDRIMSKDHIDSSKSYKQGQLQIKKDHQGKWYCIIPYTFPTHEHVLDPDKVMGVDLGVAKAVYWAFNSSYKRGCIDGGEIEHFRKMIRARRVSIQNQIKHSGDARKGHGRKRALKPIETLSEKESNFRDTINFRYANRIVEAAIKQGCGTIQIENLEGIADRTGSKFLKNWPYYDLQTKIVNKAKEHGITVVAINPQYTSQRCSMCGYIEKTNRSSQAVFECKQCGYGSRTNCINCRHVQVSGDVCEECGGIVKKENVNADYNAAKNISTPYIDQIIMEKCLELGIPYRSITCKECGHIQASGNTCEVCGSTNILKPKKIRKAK

T2: Cas-alpha 10 wild type (Cas12f) (Syntrophomonas palmitatica, UniProt P0DW62 SEQ:1-497)
T2 sequence: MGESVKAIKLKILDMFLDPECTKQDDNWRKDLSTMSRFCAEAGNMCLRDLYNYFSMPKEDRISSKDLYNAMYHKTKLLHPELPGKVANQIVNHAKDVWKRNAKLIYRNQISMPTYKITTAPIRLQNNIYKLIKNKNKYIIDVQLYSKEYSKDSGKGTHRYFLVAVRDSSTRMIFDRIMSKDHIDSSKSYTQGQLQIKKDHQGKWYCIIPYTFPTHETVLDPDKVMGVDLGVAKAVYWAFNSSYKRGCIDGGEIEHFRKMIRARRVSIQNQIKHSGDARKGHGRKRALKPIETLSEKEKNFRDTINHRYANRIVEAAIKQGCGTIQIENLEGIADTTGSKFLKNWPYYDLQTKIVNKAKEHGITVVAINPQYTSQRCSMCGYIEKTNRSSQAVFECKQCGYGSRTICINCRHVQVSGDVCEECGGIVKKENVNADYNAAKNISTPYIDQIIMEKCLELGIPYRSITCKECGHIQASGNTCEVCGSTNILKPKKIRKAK

T3: Cas-alpha 10 variant G81E (synthetic construct, UniProt P0DW62 SEQ:1-497)
T3 chain: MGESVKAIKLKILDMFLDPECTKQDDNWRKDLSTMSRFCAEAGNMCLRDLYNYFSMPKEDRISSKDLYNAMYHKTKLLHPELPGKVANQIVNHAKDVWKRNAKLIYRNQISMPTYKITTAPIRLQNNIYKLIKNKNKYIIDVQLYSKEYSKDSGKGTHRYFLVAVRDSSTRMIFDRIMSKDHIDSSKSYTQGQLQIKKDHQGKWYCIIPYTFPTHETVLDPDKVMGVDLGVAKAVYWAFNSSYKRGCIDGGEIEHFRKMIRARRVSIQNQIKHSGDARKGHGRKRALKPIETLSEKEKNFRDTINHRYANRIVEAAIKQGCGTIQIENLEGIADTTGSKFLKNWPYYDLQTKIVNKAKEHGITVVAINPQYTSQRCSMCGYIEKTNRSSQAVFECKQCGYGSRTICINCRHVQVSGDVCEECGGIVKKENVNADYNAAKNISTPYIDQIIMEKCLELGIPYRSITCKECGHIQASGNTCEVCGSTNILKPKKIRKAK

T4: Cas-alpha 10 variant T34E+M45S+G81E+G470D (SEQ ID NO:362) (synthetic construct, UniProt P0DW62 SEQ:1-497, D54F)
T4 sequence: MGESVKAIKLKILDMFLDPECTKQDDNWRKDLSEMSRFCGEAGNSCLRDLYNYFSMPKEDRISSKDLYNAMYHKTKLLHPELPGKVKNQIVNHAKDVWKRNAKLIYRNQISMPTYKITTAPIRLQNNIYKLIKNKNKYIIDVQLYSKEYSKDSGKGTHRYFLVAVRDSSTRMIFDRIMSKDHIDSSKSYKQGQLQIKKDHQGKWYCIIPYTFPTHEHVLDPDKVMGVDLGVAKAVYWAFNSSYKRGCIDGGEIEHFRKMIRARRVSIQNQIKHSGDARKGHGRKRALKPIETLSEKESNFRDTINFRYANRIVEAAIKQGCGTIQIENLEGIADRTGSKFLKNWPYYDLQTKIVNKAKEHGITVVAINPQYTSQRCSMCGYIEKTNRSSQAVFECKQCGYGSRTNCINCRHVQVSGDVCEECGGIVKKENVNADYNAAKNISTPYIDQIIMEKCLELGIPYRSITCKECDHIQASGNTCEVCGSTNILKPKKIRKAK

B1: sgRNA RUNX (original) ; RUNX target (ssRNA ; dsDNA)
RNA: AUUUACUCUGUUUCGCGCGCCAGGGCAGUUAGGUGCCCUAAAAGAGCGAAGUGGCCGAAAGGAAAGGCUAACGCUUCUCUAACGCUACGGCGACCUUGGCGAAAUGCCAUCAAUACCACGCGGCCCGAAAGGGUUCGCGCGAAACUGAGUAAUGAAAGUCGCAUCUUGCGUAAGCGCGUGGAUUGAAACCCUGUCUUGUUUGUGAGAGG
DNA 1: GTTCCCTGTCTTGTTTGTGAGAGG
DNA 2: CCTCTCACAAACAAGACAGGGAAC
B2: sgRNA MS26 (original) ; MS26 target (ssRNA ; dsDNA)
RNA: AUUUACUCUGUUUCGCGCGCCAGGGCAGUUAGGUGCCCUAAAAGAGCGAAGUGGCCGAAAGGAAAGGCUAACGCUUCUCUAACGCUACGGCGACCUUGGCGAAAUGCCAUCAAUACCACGCGGCCCGAAAGGGUUCGCGCGAAACUGAGUAAUGAAAGUCGCAUCUUGCGUAAGCGCGUGGAUUGAAACAAGUUCACGGCGUUCCAGGC
DNA 1: GTTCAAGTTCACGGCGTTCCAGGC
DNA 2: GCCTGGAACGCCGTGAACTTGAAC
B3: sgRNA RUNX Design 5_157-159 ; RUNX target (ssRNA ; dsDNA)
RNA: GUUUCGCGCGCCAGGGCAGUUAGGUGCCCUAAAAGAGCGAAGUGGCCGAAAGGAAAGGCUAACGCUUCUCUAACGCUACGGCGACCUUGGCGAAAUGCCAUCAAUACCACGCGGCCCGAAAGGGUUCGCGCGAAACGAACGCAUCUUGCGUAAGCGCGUGGAUUGAAACCCUGUCUUGUUUGUGAGAGG
DNA 1: GTTCCCTGTCTTGTTTGTGAGAGG
DNA 2: CCTCTCACAAACAAGACAGGGAAC

Assays:
[1] = molecular target: T1, Cas-alpha 10 base variant; test: cell_activity; PAM GTTC; HEK293T 37 C; details: tags: SV40 NLS; chain copies: 2
Method: (§1) Human cell transformation was carried-out by culturing HEK293T cells (ATCC catalog umber CRL-3216) in Dulbecco's Modified Eagle Medium (DMEM) supplemented with 10% fetal bovine serum (FBS) and penicillin (100 U/ml)/streptomycin (100 μg/ml) at 37° C. in 5% CO₂. Cells were then seeded in 96-well plates at a 1.8×10^4 cells/well density. After approximately one day growth, cells were transfected with plasmids encoding nuclease and U6-guide RNA expression cassettes using FuGENE HD (Promega) per manufacturer's instruction. Briefly, on the day of transfection, 0.450 μg of plasmid DNA ([…] of Cas-alpha nuclease and 0.099 μg of sgRNA expression cassettes) was diluted in a final volume of 20 μl of room temperature Opti-MEM (Gibco), mixed, and 1.35 μl of FuGENE HD was added directly to the solution (not allowing undiluted transfection reagent to contact the sides or bottom of the tube or plate) to achieve a 3:1 ratio of transfection reagent to plasmid DNA. The resulting mixture was then incubated for 10 mins at room temperature, 20 μl added to each HEK293T seeded well, and mixed gently by pipetting or by using a shaker. Transfected cells were then grown at 37° C. with 5% CO₂ for 4 days and GFP expression monitored by fluorescence microscope. Experiments were performed with three to twelve independent replicates and transfections where Cas-alpha 10 endonuclease and/or sgRNA plasmid DNA expression cassettes were omitted served as negative controls.
(§2) For human cells, cells were washed twice with PBS two to four days after transfection and lysed using lysis buffer (50 mM Tris, 150 mM NaCl, 0.2% Tween 20, 0.2 mg/ml Proteinase K). Next, RUNX and WTAP targets were evaluated for the presence of targeted mutations using T7 endonuclease I (Guschin, D. Y. et al. (2010) In: Mackay J., Segal D. (eds) Engineered Zinc Finger Proteins. Methods in Molecular Biology (Methods and Protocols), vol 649. Humana Press, Totowa, NJ) and Illumina deep sequencing as described above.

[2] = molecular target: T2, Cas-alpha 10 wild type (Cas12f); test: cell_activity; PAM GTTC; HEK293T 37 C; details: tags: SV40 NLS; chain copies: 2
Method: as §1, §2

[3] = molecular target: T3, Cas-alpha 10 variant G81E; test: cell_activity; PAM GTTC; maize, 3x4 hr 45 C; details: tags: SV40 NLS; chain copies: 2
Method: The resulting T-DNA was then placed into LBA4404, a thymine auxotrophic strain of Agrobacterium tumefaciens, containing Vir9, a separate plasmid encoding the Bo542 virulence genes (US20170121722A1 and WO 2017/078836). The resulting Agrobacterium strain was then used to transform nine-to-ten-day old immature maize embryos (approximately 2 mm in size) by submersion in 700A liquid media containing the strain at an optical density (OD) of 0.4 to 2.0 at 550 nm for 5 min. and then removed from the media and placed on solid co-cultivation medium overnight at 21° C. in the dark. Following T-DNA delivery, embryos are transferred to resting media, 13266R, and grown in the dark at 28° C. for 5-7 days. Next, coleoptiles were removed, and embryos transferred to selection media for 11-16 days and kept in the dark at 28° C. They were then moved to maturation media and incubated for 14-25 days in the dark at 28° C. and then subject to light for 2-5 days. Next, they were moved to rooting media and incubated at 26-28° C. under light for 14-28 days refreshing media as needed. To examine Cas-alpha nuclease-guide RNA activity, transformed tissue was incubated at 28° C., standard for Agrobacterium transformation, or at a range of temperatures lower or higher than 28° C.
In a third study, the efficiency of targeted mutagenesis of Cas-alpha 10 endonuclease variants, SEQ ID NOs:14, 48, 60, and 157, were compared when tested with two sgRNA recognition domains, SEQ ID NOs:61 and 327, at two target sites, MS26 and D8. Experiments were carried-out in Zea mays using Agrobacterium (Agro) transformation as described in Example 2. Two temperature regimens were performed. The first subjected Agro transformed embryos (once per day) to 45° C. for 4 hrs on days 3, 4, and 5 (3×4 hr 45° C.) after infection and the second to a continuous incubation at 37° C. on days 1-3 (1-3d 37° C.) following infection. For both regimens, embryos were placed at 28° C. before and after temperature treatment. […]

[4] = molecular target: T4, Cas-alpha 10 variant …; test: cell_activity; PAM GTTC; HEK293T 37 C; details: tags: SV40 NLS, T2A-GFP; chain copies: 2
Method: as §1, §2

| Binder | activity [1] | activity [2] | activity [3] | activity [4] |
| --- | --- | --- | --- | --- |
| B1 | 8.77 % targeted mutagenesis | 5.68 % targeted mutagenesis | – | – |
| B2 | – | – | 6.62 % targeted mutagenesis | – |
| B3 | 19.6 % targeted mutagenesis | – | – | 24.2 % targeted mutagenesis |

Source: US20260218147, “CAS ENDONUCLEASE AND GUIDE RNA VARIANTS WITH IMPROVED EFFICIENCY” (PIONEER HI-BRED INTERNATIONAL, INC., published 2026)
